Results as given in US12723255B2, “Herbicide tolerance genes and methods of use thereof” (priority 2014, dated 2026).
Read-outs that look alike come from different tables or passages of the source.

Experiments:
[1] = high-throughput enzyme assay with crude bacterial extract; format: biochemical; conditions: relative to wild-type RdpA; for Average quizalofop-P activity: average of replicates
Method: The high-throughput bacterial protein expression was achieved by synthesizing a recombinant DNA molecule encoding each engineered protein and cloning this into a bacterial expression vector with a C-terminal histidine tag (His-tag) operably linked to the recombinant DNA molecule. The vectors were used to transform Escherichia coli (E. coli), and bacterial expression of the engineered proteins was induced. Overnight E. coli cultures were grown in 96-well plates and the cultures were centrifuged to pellet the bacteria. The bacterial pellets were lysed by adding 100 ul lysis master mix (10 ml of Bacteria Protein Extraction Reagent (B-PER®) II (Pierce Biotechnology, Rockford, IL; cat. no. 78260); 10 ul Lysozyme (10 ug/ml final; Lysozyme American Bioanalytical, Natick, MA; cat. no. AB011780-00005); and 40 ul Benzonase® Nuclease (100 Units/ml final, Novagen, Darmstadt, Germany; cat no 71206-3)) to each well. The plates were vortexed then incubated for 30 minutes at 4° C. 400 ul of MOPS buffer (pH 6.57) was added to cach well and the debris pelleted by centrifugation. The lysate supernatant was carefully removed and used as the crude bacterial extract for subsequent enzymatic analysis.
(§1) The high-throughput herbicide degradation enzyme assay was designed to assay the enzymatic activity of the engineered proteins towards various herbicides using crude bacterial extract. The engineered protein's oxygenase activity (that is, its enzymatic activity) was measured by an end point colorimetric assay utilizing detection of phenol products through measurement of absorbance at 510 nm from 4-aminoantipyrine and potassium ferricyanide. This assay was based on the assay described in Fukomori and Hausinger, Journal of Biological Chemistry (1993) 268(32):24311-24317. Enzyme reactions were assayed in 96-well plates in a total volume of 150ul that contained: 20 mM MOPS pH 6.75, 50-200 uM NH4FeSO4, 50-200 uM sodium ascorbate, 1 mM alpha-ketoglutarate (aKG), 10 ul of E. coli cell lysate containing expressed engineered protein, and substrate (either an AOPP herbicide or phenoxy acid herbicide). […] Absorbance measurements were made on a standard laboratory spectrometer. Assays were scaled as needed to enhance throughput. Standard curves were generated using purified protein or product standards.
Using this high-throughput bacterial protein expression and enzyme assay system, activities of approximately 1200 engineered proteins were measured relative to the activity of a selected wild-type protein, RdpA. In a 96 well plate assay, there were 3 controls (crude bacterial extract without an engineered protein) and 3 positive controls (crude bacterial extract with wild-type protein). The absorbance of the wells was measured and the protein activity was calculated using the following formula:
[formula] where, Activityi is the activity of the sample, Absorbancei is the absorbance of the sample, AbsorbanceWT is the absorbance of the wells containing extract from E. coli expressing the wild-type enzyme, and AbsorbancepET is the absorbance of the wells containing extract from E. coli without an engineered protein. Activity for each unique engineered protein was measured in duplicate and was reported as an average of the two measurements.
Using the information learned from the first assays, protein engineering was then done as described previously to produce additional engineered proteins, which were tested as described in this Example 1. The results of the high-throughput enzyme assay with quizalofop-P as the substrate for five of these additional engineered proteins are provided in Table 2.

[2] = enzyme kinetic measurements with purified protein; format: biochemical; conditions: for Km: 0-1280 uM substrate; for Vmax Fenoxaprop / Vmax Fluazifop / Vmax Haloxyfop / Vmax Quizalofop-P: relative values
Method: as §1
Further protein characterization, such as Km, Vmax, and crystal structure analysis, was performed using the five engineered proteins from Table 2. For this detailed analysis, purified protein was prepared as follows: 2 ml overnight cultures of E. coli expressing a transgene encoding a given MON-HT protein were used to inoculate 500 ml of broth and grown at 37° C. for 4 hours followed by culture at 15° C. for approximately 36 hours. Then 250 ml of the 500 ml bacterial culture was pelleted by centrifugation and resuspended in 25 ml of extraction buffer (20 mM Tris, pH 7.8, 300 mM NaCl, 5 mM beta-mercaptoethanol (BME), 20 mM imidazole (Fluka/Sigma-Aldrich, St. Louis, MO), 125 units/ml of benzonase and 10K units/ml of lysozyme (Novagen, Darmstadt, Germany). The cell slurry was passed through a cell disruptor once at 20000 psi and then this cell lysate was clarified by centrifugation at 35,000×g for 20 min at 4° C. The supernatant containing the soluble His-tagged proteins was used for protein purification. For this purification, the supernatant was applied to a 1 ml HisTrap™ FF column (Nickel Sepharose) (GE Healthcare, Piscataway, NJ) using an AKTaxpress™ system (GE Healthcare, Piscataway, NJ) following the standard manufacturer's protocol. The wash buffer consisted of: 20 mM Tris pH 7.8, 300 mM NaCl, 20 mM imidazole and 5 mM BME. The composition of elution buffer was the same as the wash buffer except with 500 mM imidazole. The eluate from the nickel column was desalted on a Quick Spin Protein Sephadex G-25 fine column (Roche Applied Science, Indianapolis, IN) following the manufacturer's protocol. The eluted protein was in buffer consisting of: 20 mM Tris pH 7.8, 50 mM NaCl and 5 mM BME. Protein extract purity was assessed by SDS-PAGE analysis. Protein concentration was determined by Bradford assay using Bio-Rad Protein Assay dye reagent (Biorad, Hercules, CA, cat no 500-0006).
Purified protein for the five engineered proteins was analyzed using the enzyme assay described in this Example 1, but with four different AOPP herbicides as substrates: quizalofop-P, haloxyfop, fenoxaprop, and fluazifop. Standard curves were generated using 2,4-dichlorophenol (2,4-DCP), which was used to produce a general phenol standard curve. The amount of phenol generated in the assay by the engineered proteins was calculated based on this standard curve. The controls were purified wild-type enzyme, no enzyme, and no substrate. Enzyme kinetic measurements of the five engineered proteins was done using 0, 20, 40, 80, 160, 320, 640, or 1280 uM of quizalofop-P, haloxyfop, fenoxaprop, or fluazifop herbicides.

[3] = tested on: transgenic soybean plants; experiment: R0 soybean 2,4-D spray test of 2,4-D optimized variants; format: in vivo; conditions: for tolerance to 2,4-D treatment: 2× application rate, soy
From the text: An additional five engineered proteins optimized for activity for 2,4-D were then selected for analysis in transgenic soybean. DNA constructs were produced for expressing MON-HT13 (SEQ ID NO:47), MON-HT14 (SEQ ID NO:48), MON-HT15 (SEQ ID NO:49), MON-HT17 (SEQ ID NO:51), and MON-HT18 (SEQ ID NO:52) with codon usage optimized for dicot expression. The operably linked expression elements (promoter, leader, intron, CTP, and 3′UTR) were identical in all of the constructs. Leaf samples were taken from R0 plantlets and single copy plants were identified using a PCR-based assay. When the single-copy R0 plants had approximately two to three trifoliate leaves, they were treated with either 1.5 lb ae/acre (2×) or 3.0 lb ae/acre (4×) of 2,4-D. Seven days after herbicide application, the plants were scored for herbicide injury based on the percent area of the plant showing injury, as indicated above.

[4] = 2,4-D rate 2X (1.5 lb ae/acre), single copy R0 soy, seven days after application

| Molecule | Replicate 1 quizalofop-P activity [1] | Replicate 2 quizalofop-P activity [1] | Replicate 3 quizalofop-P activity [1] | Average quizalofop-P activity [1] | Km ([2]; read-out: Km Fenoxaprop) [µM] | Km ([2]; read-out: Km Fluazifop) [µM] | Km ([2]; read-out: Km Haloxyfop) [µM] | Km ([2]; read-out: Km Quizalofop-P) [µM] | Vmax Fenoxaprop [2] | Vmax Fluazifop [2] | Vmax Haloxyfop [2] | Vmax Quizalofop-P [2] | Events with <20% injury [3, 4] | tolerance to 2,4-D treatment [3] | Events with 20-50% injury [3, 4] |
| --- | --- | --- | --- | --- | --- | --- | --- | --- | --- | --- | --- | --- | --- | --- | --- |
| MON-HT52: engineered oxygenase protein, amino acid sequence SEQ ID NO:4 (protein) MHAALSPLSQRFERIAVQPLTGVLGAEITGVDLREPLDDSTWNEILDAFHTYQVIYFPGQAITNEQQIAFSRRFGPVDPVPLLKSIEGYPEVQMIRREANESGRVIGDDWHTDSTFLDAPPAAVVMRAIDVPEHGGDTGFLSMYTAYDALSDGLKKLISGLNVVHSATRVFGSLYQAQNRRFSNTSVKVMDVDAGDRETVHPLVVTHPGSGRKGLYVNQVYCQRIEGMSEKESEPLLSFLFAHATKPEFTCRVRWKKDQVLVWDNLCTMHYAINDYHGQTRILHRTTVGGVRPAR | 92.17 | 54.46 | 89.75 | 78.79 | 490 | 14 | 280 | 420 | 420 | 43 | 45 | 39 | – | – | – |
| MON-HT53: engineered oxygenase protein, amino acid sequence SEQ ID NO:7 (protein) MHAALSPLSQRFERIAVQPLTGVLGAEITGVDLREPLSDSTWNEILDAFHTYQVIYFPGQAITNEQHIAFSRRFGPVDPVPLLKSIEGYPEVQMIRREANESGRVIGDDWHSDSTFLDAPPAAVVMRAIDVPEHGGDTGFLSMYTAYDALSDGLKKLISGLNVVHSATRVFGSLYQAQNRRFSNTSVKVMDVDAGDRETVHPLVVTHPGSGRKGLYVNQVYCQRIEGMSEKESEPLLSFLFAHATKPEFTCRVRWKKDQVLVWDNLCTMHYAINDYHGQTRILHRTTVGGVRPAR | 105.34 | 105.31 | 106.13 | 105.60 | 1100 | 1 | 290 | 690 | 640 | 40 | 64 | 95 | – | – | – |
| MON-HT54: engineered oxygenase protein, amino acid sequence SEQ ID NO:9 (protein) MHAALSPLSQRFERIAVQPLTGVLGAEITGVDLREPLDDSTWNEILDAFHTYQVIYFPGQAITNEQHIAFSRRFGPVDPVPLLKSIEGYPEVQMIRREANESGRVLGDDWHTDSTFLDAPPAAVVMRAIDVPEHGGDTGFLSMYTAYDALSDGLKKLISGLNVVHSATRVFGSLYQAQNRRFSNTSVKVMDVADGDRETVHPLVVTHPGSGRKGLYVNQVYCQRIEGMSEKESEPLLSFLFAHATKPEFTCRVRWKKDQVVVWDNLCTMHYAINDYHGQTRILHRTTVGGVRPAR | 131.85 | 149.77 | 130.56 | 137.39 | 2100 | – | 380 | 560 | 630 | – | 40 | 32 | – | – | – |
| MON-HT14: engineered oxygenase protein, amino acid sequence SEQ ID NO:48 (protein) MHAALTPLTNKYRHIDVQPLTGVLGAEITGVDLREPLDDSTWNEILDAFHTYQVIYFPGQAITNEQHIAFSRRFGPVDPVPILKSIEGYPEVQMIRREANESSRYIGDDWHADSTFLDAPPAAVVMRAIEVPEYGGDTGFLSMYSAWETLSPTMQATIEGLNVVHSATKVFGSLYQATNWRFSGTSVKVMDVDAGDRETVHPLVVTHPVTGRRALYCNQVYCQKIQGMTDAESKSLLQFLYEHATQFDFTCRVRWKKDQVLVWDNLCTMHRAVPDYAGKFRYLTRTTVAGDKPSR | – | – | – | – | – | – | – | – | – | – | – | – | 9 | excellent tolerance | – |
| MON-HT18: engineered oxygenase protein, amino acid sequence SEQ ID NO:52 (protein) MHAALTPLTNKYRHIDVQPLTGVLGAEITGVDLREPLDDSTWNEILDAFHTYQVIYFPGQAITNEQHIAFSRRFGPVDPVPILKSIEGYPEVQMIRREANESSRYIGDDWHADSTFLDAPPAAVVMRAIEVPEYGGDTGFLSMYSAWETLSPTMQATIEGLNVVHSATKVFGSLYQATNWRFSNTSVKVMDVDAGDRETVHPLVVTHPVTGRRALYCNQVYCQKIQGMTDAESKSLLQFLYEHATQFDFTCRVRWKKDQVLVWDNLCTMHRAVPDYAGKFRYLTRTTVAGDKPSR | – | – | – | – | – | – | – | – | – | – | – | – | 11 | excellent tolerance | 1 |
